The values that follow are results of earlier work, collected in article PMC8131754.

The Kd is the equilibrium constant for the complex coming apart.

In this data set the target is SRC-2 coactivator peptide (Homo sapiens) (UniProt Q15596).
UniProt Q15596, sequence (Q15596 2-1464): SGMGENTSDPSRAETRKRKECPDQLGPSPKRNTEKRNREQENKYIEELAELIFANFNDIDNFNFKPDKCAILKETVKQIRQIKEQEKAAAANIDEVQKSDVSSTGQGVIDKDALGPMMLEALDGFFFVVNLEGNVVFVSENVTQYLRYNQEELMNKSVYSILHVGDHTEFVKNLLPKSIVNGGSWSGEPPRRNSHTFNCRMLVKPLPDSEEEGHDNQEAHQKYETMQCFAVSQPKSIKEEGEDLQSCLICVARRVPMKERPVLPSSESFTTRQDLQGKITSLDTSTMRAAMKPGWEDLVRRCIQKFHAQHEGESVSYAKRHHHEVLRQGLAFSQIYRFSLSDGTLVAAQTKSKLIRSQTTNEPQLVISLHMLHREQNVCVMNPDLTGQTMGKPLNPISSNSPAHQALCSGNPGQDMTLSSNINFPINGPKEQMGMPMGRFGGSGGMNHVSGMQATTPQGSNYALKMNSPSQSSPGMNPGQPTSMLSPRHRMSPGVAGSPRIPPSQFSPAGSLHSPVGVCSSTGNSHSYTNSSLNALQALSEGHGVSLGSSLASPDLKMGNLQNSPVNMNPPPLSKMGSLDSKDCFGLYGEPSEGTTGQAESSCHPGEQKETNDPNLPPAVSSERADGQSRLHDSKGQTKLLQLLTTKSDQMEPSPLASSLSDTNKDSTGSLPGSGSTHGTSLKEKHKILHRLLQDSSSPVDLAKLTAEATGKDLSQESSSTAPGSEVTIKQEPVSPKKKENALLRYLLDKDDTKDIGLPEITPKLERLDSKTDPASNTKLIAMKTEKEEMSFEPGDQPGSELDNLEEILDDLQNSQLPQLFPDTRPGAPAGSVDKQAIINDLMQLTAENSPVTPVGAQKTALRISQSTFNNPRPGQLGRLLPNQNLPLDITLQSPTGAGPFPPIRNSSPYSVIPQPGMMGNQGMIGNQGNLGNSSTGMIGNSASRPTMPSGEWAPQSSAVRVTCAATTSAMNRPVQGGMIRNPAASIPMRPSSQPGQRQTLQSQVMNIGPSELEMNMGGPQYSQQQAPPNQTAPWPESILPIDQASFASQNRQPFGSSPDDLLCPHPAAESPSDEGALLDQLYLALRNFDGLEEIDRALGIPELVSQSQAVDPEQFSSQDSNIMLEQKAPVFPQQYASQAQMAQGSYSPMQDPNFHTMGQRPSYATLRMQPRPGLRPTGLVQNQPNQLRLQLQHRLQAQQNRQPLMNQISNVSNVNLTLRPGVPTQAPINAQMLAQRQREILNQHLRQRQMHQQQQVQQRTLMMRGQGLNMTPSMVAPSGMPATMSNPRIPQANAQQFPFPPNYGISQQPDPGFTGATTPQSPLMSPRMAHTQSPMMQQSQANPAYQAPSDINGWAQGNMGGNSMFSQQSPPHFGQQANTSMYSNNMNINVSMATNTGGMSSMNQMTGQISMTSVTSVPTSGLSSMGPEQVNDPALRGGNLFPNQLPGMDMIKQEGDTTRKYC

As for “Estrogen receptor α LBD (from UniProt P03372)”, the Kd was 175 nM.
